Source: patent US20260242735A1 (UNIVERSIT T BASEL, published 2026)

Columns and labels:
Assay in all cases: alanine scan, flow cytometry, HEK293-T;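 also: antibody binding to each alanine-substituted CD33 mutant expressed transiently in HEK293-T, read as fluorescence minus background, mean of duplicates, relative to wild-type CD33 set as 100%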
human CD33 P55A = human CD33 P55A (human, UniProt P20138 18-364)
human CD33 H57A = human CD33 H57A (human, UniProt P20138 18-364)
human CD33 G58A = human CD33 G58A (human, UniProt P20138 18-364)
human CD33 G58A, sequence (P20138 18-364 G58A limits assumed): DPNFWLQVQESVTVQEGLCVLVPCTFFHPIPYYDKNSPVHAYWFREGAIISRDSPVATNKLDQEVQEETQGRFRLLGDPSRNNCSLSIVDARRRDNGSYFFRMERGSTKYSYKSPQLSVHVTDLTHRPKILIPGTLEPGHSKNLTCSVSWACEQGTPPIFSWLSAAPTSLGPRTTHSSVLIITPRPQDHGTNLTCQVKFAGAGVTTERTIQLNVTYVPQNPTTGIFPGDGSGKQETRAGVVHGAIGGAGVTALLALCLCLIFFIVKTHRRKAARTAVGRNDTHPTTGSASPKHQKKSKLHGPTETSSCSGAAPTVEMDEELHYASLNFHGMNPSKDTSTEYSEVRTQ

human CD33 W60A = human CD33 W60A (human, UniProt P20138 18-364)
human CD33 W60A, sequence (P20138 18-364 W60A limits assumed): as the sequence (P20138 18-364 G58A limits assumed) above, with A41G, W43A counted along it

human CD33 F61A = human CD33 F61A (human, UniProt P20138 18-364)
human CD33 F61A, sequence (P20138 18-364 F61A limits assumed): as the sequence (P20138 18-364 G58A limits assumed) above, with A41G, F44A counted along it

human CD33 G64A = human CD33 G64A (human, UniProt P20138 18-364)
human CD33 G64A, sequence (P20138 18-364 G64A limits assumed): as the sequence (P20138 18-364 G58A limits assumed) above, with A41G, G47A counted along it

human CD33 I67A = human CD33 I67A (human, UniProt P20138 18-364)
human CD33 I67A, sequence (P20138 18-364 I67A limits assumed): as the sequence (P20138 18-364 G58A limits assumed) above, with A41G, I50A counted along it

human CD33 S68A = human CD33 S68A (human, UniProt P20138 18-364)
human CD33 S68A, sequence (P20138 18-364 S68A limits assumed): as the sequence (P20138 18-364 G58A limits assumed) above, with A41G, S51A counted along it

human CD33 D70A = human CD33 D70A (human, UniProt P20138 18-364)
human CD33 D70A, sequence (P20138 18-364 D70A limits assumed): as the sequence (P20138 18-364 G58A limits assumed) above, with A41G, D53A counted along it

human CD33 A74S = human CD33 A74S (human, UniProt P20138 18-364)
human CD33 A74S, sequence (P20138 18-364 A74S limits assumed): as the sequence (P20138 18-364 G58A limits assumed) above, with A41G, A57S counted along it

human CD33 L92A = human CD33 L92A (human, UniProt P20138 18-364)
human CD33 L92A, sequence (P20138 18-364 L92A limits assumed): as the sequence (P20138 18-364 G58A limits assumed) above, with A41G, L75A counted along it

human CD33 L93A = human CD33 L93A (human, UniProt P20138 18-364)
human CD33 L93A, sequence (P20138 18-364 L93A limits assumed): as the sequence (P20138 18-364 G58A limits assumed) above, with A41G, L76A counted along it

human CD33 L103A = human CD33 L103A (human, UniProt P20138 18-364)
human CD33 L103A, sequence (P20138 18-364 L103A limits assumed): as the sequence (P20138 18-364 G58A limits assumed) above, with A41G, L86A counted along it

human CD33 R119A = human CD33 R119A (human, UniProt P20138 18-364)
human CD33 R119A, sequence (P20138 18-364 R119A limits assumed): as the sequence (P20138 18-364 G58A limits assumed) above, with A41G, R102A counted along it

human CD33 P48A = human CD33 P48A (human, UniProt P20138 18-364)
human CD33 P48A, sequence (P20138 18-364 P48A limits assumed): as the sequence (P20138 18-364 G58A limits assumed) above, with P31A, A41G counted along it

human CD33 K126A = target: T1, human CD33 K126A (human, UniProt P20138 18-364)
T1 construct: alanine scan clone, transfected HEK293-T
T1 sequence (P20138 18-364 K126A limits assumed): as the sequence (P20138 18-364 G58A limits assumed) above, with A41G, K109A counted along it

human CD33 K130A = target: T2, human CD33 K130A (human, UniProt P20138 18-364)
T2 construct: alanine scan clone, transfected HEK293-T
T2 sequence (P20138 18-364 K130A limits assumed): as the sequence (P20138 18-364 G58A limits assumed) above, with A41G, K113A counted along it

human CD33 Q133A = target: T3, human CD33 Q133A (human, UniProt P20138 18-364)
T3 construct: alanine scan clone, transfected HEK293-T
T3 sequence (P20138 18-364 Q133A limits assumed): as the sequence (P20138 18-364 G58A limits assumed) above, with A41G, Q116A counted along it

human CD33 V136A = target: T4, human CD33 V136A (human, UniProt P20138 18-364)
T4 construct: alanine scan clone, transfected HEK293-T
T4 sequence (P20138 18-364 V136A limits assumed): as the sequence (P20138 18-364 G58A limits assumed) above, with A41G, V119A counted along it

human CD33 T139A = target: T5, human CD33 T139A (human, UniProt P20138 18-364)
T5 construct: alanine scan clone, transfected HEK293-T
T5 sequence (P20138 18-364 T139A limits assumed): as the sequence (P20138 18-364 G58A limits assumed) above, with A41G, T122A counted along it

human CD33 K146A = target: T6, human CD33 K146A (human, UniProt P20138 18-364)
T6 construct: alanine scan clone, transfected HEK293-T
T6 sequence (P20138 18-364 K146A limits assumed): as the sequence (P20138 18-364 G58A limits assumed) above, with A41G, K129A counted along it

human CD33 I147A = target: T7, human CD33 I147A (human, UniProt P20138 18-364)
T7 construct: alanine scan clone, transfected HEK293-T
T7 sequence (P20138 18-364 I147A limits assumed): as the sequence (P20138 18-364 G58A limits assumed) above, with A41G, I130A counted along it

human CD33 L148A = target: T8, human CD33 L148A (human, UniProt P20138 18-364)
T8 construct: alanine scan clone, transfected HEK293-T
T8 sequence (P20138 18-364 L148A limits assumed): as the sequence (P20138 18-364 G58A limits assumed) above, with A41G, L131A counted along it

human CD33 L153A = target: T9, human CD33 L153A (human, UniProt P20138 18-364)
T9 construct: alanine scan clone, transfected HEK293-T
T9 sequence (P20138 18-364 L153A limits assumed): as the sequence (P20138 18-364 G58A limits assumed) above, with A41G, L136A counted along it

human CD33 H157A = target: T10, human CD33 H157A (human, UniProt P20138 18-364)
T10 construct: alanine scan clone, transfected HEK293-T
T10 sequence (P20138 18-364 H157A limits assumed): as the sequence (P20138 18-364 G58A limits assumed) above, with A41G, H140A counted along it

human CD33 V165A = target: T11, human CD33 V165A (human, UniProt P20138 18-364)
T11 construct: alanine scan clone, transfected HEK293-T
T11 sequence (P20138 18-364 V165A limits assumed): as the sequence (P20138 18-364 G58A limits assumed) above, with A41G, V148A counted along it

human CD33 W167A = target: T12, human CD33 W167A (human, UniProt P20138 18-364)
T12 construct: alanine scan clone, transfected HEK293-T
T12 sequence (P20138 18-364 W167A limits assumed): as the sequence (P20138 18-364 G58A limits assumed) above, with A41G, W150A counted along it

human CD33 C169A = target: T13, human CD33 C169A (human, UniProt P20138 18-364)
T13 construct: alanine scan clone, transfected HEK293-T
T13 sequence (P20138 18-364 C169A limits assumed): as the sequence (P20138 18-364 G58A limits assumed) above, with A41G, C152A counted along it

human CD33 G172A = target: T14, human CD33 G172A (human, UniProt P20138 18-364)
T14 construct: alanine scan clone, transfected HEK293-T
T14 sequence (P20138 18-364 G172A limits assumed): as the sequence (P20138 18-364 G58A limits assumed) above, with A41G, G155A counted along it

human CD33 P175A = target: T15, human CD33 P175A (human, UniProt P20138 18-364)
T15 construct: alanine scan clone, transfected HEK293-T
T15 sequence (P20138 18-364 P175A limits assumed): as the sequence (P20138 18-364 G58A limits assumed) above, with A41G, P158A counted along it

human CD33 W179A = target: T16, human CD33 W179A (human, UniProt P20138 18-364)
T16 construct: alanine scan clone, transfected HEK293-T
T16 sequence (P20138 18-364 W179A limits assumed): as the sequence (P20138 18-364 G58A limits assumed) above, with A41G, W162A counted along it

human CD33 R190A = target: T17, human CD33 R190A (human, UniProt P20138 18-364)
T17 construct: alanine scan clone, transfected HEK293-T
T17 sequence (P20138 18-364 R190A limits assumed): as the sequence (P20138 18-364 G58A limits assumed) above, with A41G, R173A counted along it

human CD33 T192A = target: T18, human CD33 T192A (human, UniProt P20138 18-364)
T18 construct: alanine scan clone, transfected HEK293-T
T18 sequence (P20138 18-364 T192A limits assumed): as the sequence (P20138 18-364 G58A limits assumed) above, with A41G, T175A counted along it

human CD33 S194A = target: T19, human CD33 S194A (human, UniProt P20138 18-364)
T19 construct: alanine scan clone, transfected HEK293-T
T19 sequence (P20138 18-364 S194A limits assumed): as the sequence (P20138 18-364 G58A limits assumed) above, with A41G, S177A counted along it

human CD33 S195A = target: T20, human CD33 S195A (human, UniProt P20138 18-364)
T20 construct: alanine scan clone, transfected HEK293-T
T20 sequence (P20138 18-364 S195A limits assumed): as the sequence (P20138 18-364 G58A limits assumed) above, with A41G, S178A counted along it

human CD33 S124A = target: T21, human CD33 S124A (human, UniProt P20138 18-364)
T21 construct: alanine scan clone, transfected HEK293-T
T21 sequence (P20138 18-364 S124A limits assumed): as the sequence (P20138 18-364 G58A limits assumed) above, with A41G, S107A counted along it

human CD33 H57A, sequence (P20138 18-364 H57A limits assumed): as the sequence (P20138 18-364 G58A limits assumed) above, with H40A, A41G counted along it
human CD33 P55A, sequence (P20138 18-364 P55A limits assumed): as the sequence (P20138 18-364 G58A limits assumed) above, with P38A, A41G counted along it

| Binder | Mean % WT Binding (human CD33 P55A) | Mean % WT Binding (human CD33 H57A) | Mean % WT Binding (human CD33 G58A) | Mean % WT Binding (human CD33 W60A) | Mean % WT Binding (human CD33 F61A) | Mean % WT Binding (human CD33 G64A) | Mean % WT Binding (human CD33 I67A) | Mean % WT Binding (human CD33 S68A) | Mean % WT Binding (human CD33 D70A) | Mean % WT Binding (human CD33 A74S) | Mean % WT Binding (human CD33 L92A) | Mean % WT Binding (human CD33 L93A) | Mean % WT Binding (human CD33 L103A) | Mean % WT Binding (human CD33 R119A) | Mean % WT Binding (human CD33 P48A) | Mean % WT Binding (human CD33 K126A) | Mean % WT Binding (human CD33 K130A) | Mean % WT Binding (human CD33 Q133A) | Mean % WT Binding (human CD33 V136A) | Mean % WT Binding (human CD33 T139A) | further results |
| --- | --- | --- | --- | --- | --- | --- | --- | --- | --- | --- | --- | --- | --- | --- | --- | --- | --- | --- | --- | --- | --- |
| Refmab #6 (antibody, V domains shown, Full-length format is human IgG1 Fc silent (PG-LALA); also made as Fab; The alanine scan used IgG or Fab) VH: QVQLQQPGAEVVKPGASVKMSCKASGYTFTSYYIHWIKQTPGQGLEWVGVIYPGNDDISYNQKFQGKATLTADKSSTTAYMQLSSLTSEDSAVYYCAREVRLRYFDVWGQGTTVTVSS VL: EIVLTQSPGSLAVSPGERVTMSCKSSQSVFFSSSQKNYLAWYQQIPGQSPRLLIYWASTRESGVPDRFTGSGSGTDFTLTISSVQPEDLAIYYCHQYLSSRTFGQGTKLEIK | 101 % WT binding | 63 % WT binding | 73.9 % WT binding | 2.1 % WT binding | 111 % WT binding | 92.9 % WT binding | 108 % WT binding | 86.4 % WT binding | 80.3 % WT binding | 94.9 % WT binding | 85.3 % WT binding | 94.2 % WT binding | 61.5 % WT binding | 123 % WT binding | 104 % WT binding | – | – | – | – | – | – |
| Refmab #6 (antibody, V domains shown, The alanine scan used IgG or Fab) VH: QVQLQQPGAEVVKPGASVKMSCKASGYTFTSYYIHWIKQTPGQGLEWVGVIYPGNDDISYNQKFQGKATLTADKSSTTAYMQLSSLTSEDSAVYYCAREVRLRYFDVWGQGTTVTVSS VL: EIVLTQSPGSLAVSPGERVTMSCKSSQSVFFSSSQKNYLAWYQQIPGQSPRLLIYWASTRESGVPDRFTGSGSGTDFTLTISSVQPEDLAIYYCHQYLSSRTFGQGTKLEIK | – | – | – | – | – | – | – | – | – | – | – | – | – | – | – | 134 % WT binding | 119 % WT binding | 88.3 % WT binding | 65.8 % WT binding | 97.7 % WT binding | Mean % WT Binding (human CD33 K146A): 116 % WT binding; Mean % WT Binding (human CD33 I147A): 65.4 % WT binding; Mean % WT Binding (human CD33 L148A): 93.3 % WT binding; Mean % WT Binding (human CD33 L153A): 94.3 % WT binding; Mean % WT Binding (human CD33 H157A): 96.3 % WT binding; Mean % WT Binding (human CD33 V165A): 101 % WT binding; Mean % WT Binding (human CD33 W167A): 90.5 % WT binding; Mean % WT Binding (human CD33 C169A): 76.2 % WT binding; Mean % WT Binding (human CD33 G172A): 76.8 % WT binding; Mean % WT Binding (human CD33 P175A): 98.6 % WT binding; Mean % WT Binding (human CD33 W179A): 96.7 % WT binding; Mean % WT Binding (human CD33 R190A): 112 % WT binding; Mean % WT Binding (human CD33 T192A): 99 % WT binding; Mean % WT Binding (human CD33 S194A): 92.4 % WT binding; Mean % WT Binding (human CD33 S195A): 113 % WT binding; Mean % WT Binding (human CD33 S124A): 98.2 % WT binding |
| Refmab #5 (antibody, V domains shown, Full-length format is human IgG1 Fc silent (PG-LALA); also made as Fab; The alanine scan used IgG or Fab) VH: QVQLVQSGAEVKKPGASVKVSCKASGYTFTNYDINWVRQAPGQGLEWIGWIYPGDGSTKYNEKFKAKATLTADTSTSTAYMELRSLRSDDTAVYYCASGYEDAMDYWGQGTTVTVSS VL: DIQMTQSPSSLSASVGDRVTINCKASQDINSYLSWFQQKPGKAPKTLIYRANRLVDGVPSRFSGSGSGQDYTLTISSLQPEDFATYYCLQYDEFPLTFGGGTKVEIK | 118 % WT binding | 121 % WT binding | 112 % WT binding | 35.9 % WT binding | 161 % WT binding | 136 % WT binding | 157 % WT binding | 142 % WT binding | 112 % WT binding | 99 % WT binding | 127 % WT binding | 134 % WT binding | 91.6 % WT binding | 167 % WT binding | 92.8 % WT binding | – | – | – | – | – | – |
| Refmab #5 (antibody, V domains shown, The alanine scan used IgG or Fab) VH: QVQLVQSGAEVKKPGASVKVSCKASGYTFTNYDINWVRQAPGQGLEWIGWIYPGDGSTKYNEKFKAKATLTADTSTSTAYMELRSLRSDDTAVYYCASGYEDAMDYWGQGTTVTVSS VL: DIQMTQSPSSLSASVGDRVTINCKASQDINSYLSWFQQKPGKAPKTLIYRANRLVDGVPSRFSGSGSGQDYTLTISSLQPEDFATYYCLQYDEFPLTFGGGTKVEIK | – | – | – | – | – | – | – | – | – | – | – | – | – | – | – | 134 % WT binding | 271 % WT binding | 112 % WT binding | 104 % WT binding | 104 % WT binding | Mean % WT Binding (human CD33 K146A): 149 % WT binding; Mean % WT Binding (human CD33 I147A): 77.2 % WT binding; Mean % WT Binding (human CD33 L148A): 113 % WT binding; Mean % WT Binding (human CD33 L153A): 101 % WT binding; Mean % WT Binding (human CD33 H157A): 102 % WT binding; Mean % WT Binding (human CD33 V165A): 174 % WT binding; Mean % WT Binding (human CD33 W167A): 95.5 % WT binding; Mean % WT Binding (human CD33 C169A): 101 % WT binding; Mean % WT Binding (human CD33 G172A): 92.7 % WT binding; Mean % WT Binding (human CD33 P175A): 130 % WT binding; Mean % WT Binding (human CD33 W179A): 133 % WT binding; Mean % WT Binding (human CD33 R190A): 112 % WT binding; Mean % WT Binding (human CD33 T192A): 109 % WT binding; Mean % WT Binding (human CD33 S194A): 90.4 % WT binding; Mean % WT Binding (human CD33 S195A): 117 % WT binding; Mean % WT Binding (human CD33 S124A): 79.4 % WT binding |
